This passage reports Kd results from article PMC7870846, “Incorporation of sensing modalities into de novo designed fluorescence-activating proteins” (Nature Communications, 2021).

Common to all, as to assay: other fluorescence titration; MBP-tagged fragment titrated into its complementary MBP-tagged fragment; 25.0 uM DFHBI-1T; high-salt Tev cleavage buffer (25.0 mM Tris, 100 mM NaCl, pH 8.00); ex 468 nm, em 530 nm; estimated Kd, signal did not plateau
Conditions in all cases: both partners purified

Assay [1] deals with T1, MBP-tagged split mFAP fragment m16.
T1 chain: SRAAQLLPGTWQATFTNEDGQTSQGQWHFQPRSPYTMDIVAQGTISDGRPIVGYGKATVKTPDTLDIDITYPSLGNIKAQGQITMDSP

Assay [2] concerns the target T2, MBP-tagged split mFAP fragment m14.
T2 chain: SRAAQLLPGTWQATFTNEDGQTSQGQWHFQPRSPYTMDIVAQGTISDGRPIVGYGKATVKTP

Assay [3] has as its target T3, MBP-tagged split mFAP fragment m17.
T3 chain: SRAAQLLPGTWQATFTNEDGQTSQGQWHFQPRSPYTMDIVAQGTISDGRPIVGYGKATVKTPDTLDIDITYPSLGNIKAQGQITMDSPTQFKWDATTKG

No end group written: not given here. A value given as a limit tells only on which side of the number the result lay.

What is called Kd is the free concentration of one partner at which half of the binding sites on the other are occupied at equilibrium, for simple one-to-one binding. Regarding TQFKWDATTKGENDFHGRLTGTLQRQE (domain or fragment, not fully specified) [MBP-tagged split mFAP fragment m78], the dissociation constant (Kd) in assay [1] is no less than 232 µM.

B1: MBP-tagged split mFAP fragment m58 (domain or fragment)
chain: DTLDIDITYPSLGNIKAQGQITMDSPTQFKWDATTKGENDFHGRLTGTLQRQE
modifications: not fully specified
Turning to B1, the Kd in assay [2] was no less than 22 µM.
Turning to ENDFHGRLTGTLQRQE (domain or fragment, not fully specified) [MBP-tagged split mFAP fragment m8], the Kd in assay [3] was no less than 354 µM.
